Reference: patent publication US20100166772A1, “ANTIGEN-BINDING PROTEINS TARGETING S. AUREUS ORF0657n” (priority 2007, published 2010)

Legend:
ORF0657n = conditions: Luminex binding assay
Experimental: Construction of ORF0657n-bead—9.4×10^6 Radix maleimide microspheres (Georgetown, Tex.) were coupled to 750 μg ORF0657n-Se (ORF0657n containing carboxyl terminal cysteine group) at room temperature for 2 hours. Beads were washed 3 times with 1 ml PBS and then quenched with 1 M N-acetyl-L-cysteine (Sigma) for 2 hours at room temperature. Microspheres were washed 3× in PBS. Beads were enumerated and re-suspended at a final concentration of 500 microspheres/μl.
Detection of Competition between CAT ScFvs and CAT mAbs—CAT scFvs were individually competed against the CAT antibodies in the Luminex cLIA assay. ScFvs were diluted 1:4, 1:8, 1:16 and 1:32 in PBS-TBN (0.05% Tween 20, 1% BSA and 0.05% sodium azide) and incubated with 5000 ORF0657n-coupled microspheres in a Multiscreen filter plate (Millipore) for 1 hour, 15 minutes at room temperature. The beads were then washed 3× with PBS with 0.05% Tween 20 (PBS/Tween20). The individual antibodies were diluted in PBS-TBN to a final concentration of 2 μg/ml and added to separate plates. […] Microspheres were re-suspended in PBS/Tween20 and the median fluorescent signal was read using a Bio-Plex luminometer (BioRad). ScFvs were considered competitive if the median fluorescent signal was reduced by at least 30% over the signal detected for non-competitive scFvs for at least two dilutions.

S. aureus = assay: Opsonophagocytosis activity (OPA) assay with HL60_DMF cells; format: cell-based; conditions: FIGS. 4 and 5
Text: An opsonophagocytosis activity (OPA) assay was developed to evaluate an antibody's ability to opsonophagocytose. The assay measures the ability of antibodies to bind and fix complement (C′) to the bacterial surface, which results in an increase in the level of phagocytosis of these bacteria by granulocytic effecter cells.
ORF0657n is an iron regulated protein on the surface of S. aureus that appears to be involved in heme/Fe acquisition. […] For this assay the strain is iron starved to increase the expression of ORF0657n. This strain also lacks the ability to produce Protein A. Protein A can bind to the Fc portion of any IgG and the presence of this non-specifically bound antibody could interfere in the OPA reaction.
HL60 cells were exposed to dimethylformamide (DMF) for five to six days to induce the cells to differentiate towards a more granulocytic phenotype. Next, 2% C′-sufficient gnotobiotic pig serum was added to the antibody bound cells. Finally, the antibody and C′ exposed cells were then labeled with the fluorescent chemical 5′, 6′-FAM-SE.
After incubation of opsonized, fluorescently-labeled bacteria and unlabeled HL60_DMF cells, the level of phagocytosis was determined by measuring the percentage of HL60_DMF cells containing labeled bacteria by flow cytometry. […]

B1: mAb CS-D10: IgG1 antibody, light chain variable region SEQ ID NO: 5, heavy chain variable region SEQ ID NO: 6, lambda (antibody, V domains shown)
VH: QVQLQESGPGLVKPSETLSLTCTVSGGSIRSSSYYWGWFRQTPGKGLEWLGNVFFSGSAYYNPSLKSRVTISIDTSENQSSLKLTSVTAADTAVYYCARPQAYSHDSSGHSPFDLWGRGTMVTVSS
VL: QAVLTQPSSVSGAPGQRVTISCTGGSSNIGAGYDVHWYQQIPGTAPKLLIYGNSNRPSGVPDRFSGSKSGTSASLAITGLQAEDEADYYCQSYDSSLNGPVVFGGGTKVTVLG
modifications: mAb CS-C10 heavy chain variable region; mAb CS-C10 light chain variable region
- mAbs compete for binding to the same epitope (ORF0657n): compete for binding to the same epitope
- opsonic activity compared to isotype control (S. aureus): higher opsonic activity compared to their IgG1 isotype control
